According to publication PMC6488853 (2019):

Biological target: T1, Spermine synthase (Homo sapiens, UniProt P52788)
T1 chain: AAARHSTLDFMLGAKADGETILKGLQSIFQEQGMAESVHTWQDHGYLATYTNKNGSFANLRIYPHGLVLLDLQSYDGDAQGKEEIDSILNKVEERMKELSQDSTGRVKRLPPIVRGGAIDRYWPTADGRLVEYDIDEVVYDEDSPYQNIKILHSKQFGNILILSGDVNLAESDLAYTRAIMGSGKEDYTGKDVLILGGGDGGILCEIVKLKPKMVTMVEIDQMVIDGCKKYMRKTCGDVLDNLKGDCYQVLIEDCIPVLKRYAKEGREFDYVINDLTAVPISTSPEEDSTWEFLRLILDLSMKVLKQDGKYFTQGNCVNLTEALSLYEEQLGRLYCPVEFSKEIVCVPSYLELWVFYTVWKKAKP
Experiment: MST

Kd: 3.5 µM
B1: Myosin Va GTD (protein)
chain: MENISPGQIIDEPIRPVNIPRKEKDFQGMLEYKKEDEQKLVKNLILELKPRGVAVNLIPGLPAYILFMCVRHADYLNDDQKVRSLLTSTINSIKKVLKKRGDDFETVSFWLSNTCRFLHCLKQYSGEEGFMKHNTSRQNEHCLTNFDLAEYRQVLSDLAIQIYQQLVRVLENILQPMIVSGMLEHETIQGVSGVKPTGLRKRTSSIADEGTYTLDSILRQLNSFHSVMCQHGMDPELIKQVVKQMFYIIGAITLNNLLLRKDMCSWSKGMQIRYNVSQLEEWLRDKNLMNSGAKETLEPLIQAAQLLQVKKKTDDDAEAICSMCNALTTAQIVKVLNLYTPVNEFEERVSVSFIRTIQMRLRDRKDSPQLLMDAKHIFPVTFPFNPSSLALETIQIPASLGLGFISRV
